# Data published in publication PMC5731819 (2017).
# B1: E. coli translesion DNA polymerase Pol IV, wild type (protein)
# chain: MRKIIHVDMDCFFAAVEMRDNPALRDIPIAIGGSRERRGVISTANYPARKFGVRSAMPTGMALKLCPHLTLLPGRFDAYKEASNHIREIFSRYTSRIEPLSLDEAYLDVTDSVHCHGSATLIAQEIRQTIFNELQLTASAGVAPVKFLAKIASDMNKPNGQFVITPAEVPAFLQTLPLAKIPGVGKVSAAKLEAMGLRTCGDVQKCDLVMLLKRFGKFGRILWERSQGIDERDVNSERLRKSVGVERTMAEDIHHWSECEAIIERLYPELERRLAKVKPDLLIARQGVKLKFDDFQQTTQEHVWPRLNKADLIATARKTWDERRGGRGVRLVGLHVTLLDPQMERQLVLGL
# modifications: Atto 565 (CoA-linked) conjugated by Sfp to the N-terminal Ybbr tag
# Target: E. coli DNA sliding clamp β (Escherichia coli (strain K12), UniProt P0A988, maleimide-Atto647N on a single cysteine residue (position not given))
# Sequence (P0A988 whole entry): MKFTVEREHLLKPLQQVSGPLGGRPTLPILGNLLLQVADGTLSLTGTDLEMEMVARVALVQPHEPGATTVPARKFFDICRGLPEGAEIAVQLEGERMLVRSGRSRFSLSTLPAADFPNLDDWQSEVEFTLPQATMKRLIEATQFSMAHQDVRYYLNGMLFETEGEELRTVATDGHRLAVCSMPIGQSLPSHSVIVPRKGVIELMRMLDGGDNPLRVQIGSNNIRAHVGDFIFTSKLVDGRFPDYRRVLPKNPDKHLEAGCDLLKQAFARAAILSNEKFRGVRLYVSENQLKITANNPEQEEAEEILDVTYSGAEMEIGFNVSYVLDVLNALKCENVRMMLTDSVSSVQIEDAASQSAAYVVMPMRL
# Assay: CoSMoS single-molecule TIRF co-localization (dwell time 14.2 s on clamp-DNA); β clamp loaded by the γ clamp loader (ATP) onto end-blocked primer-template DNA; Pol IIIcore present as competitor
binder,measurement,value
B1,binding result,binds
